A word on the koff: it is the rate constant with which the complex falls apart. Low values mean a long-lived complex, high ones a short-lived complex. As a reminder, the kon is a measure of how fast the partners come together. Read a low kon as slow association.

Where two headings read alike, the source gives them in different places.

What all share (test): stopped-flow fluorescence
The target in assay [1] is T1, Cdc42 GTPase (residues 1-179), loaded with mantGppNHp (human, UniProt P60953 1-179).
Assay [2] deals with T1, Cdc42 GTPase (residues 1-179), loaded …. The source holds these as a separate data set.
For assay [3] the target is unchanged. This is another data set of the same source.
Assay [4] has the same target. This is another data set of the same source.
Assay [5] has the same target. The source holds these as a separate data set.

T1 sequence (P60953 1-179): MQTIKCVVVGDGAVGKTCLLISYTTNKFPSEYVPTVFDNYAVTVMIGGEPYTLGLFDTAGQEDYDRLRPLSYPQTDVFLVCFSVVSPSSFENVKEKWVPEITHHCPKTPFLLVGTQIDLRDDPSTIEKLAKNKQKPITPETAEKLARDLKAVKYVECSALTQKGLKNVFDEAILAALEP

B1: Wiskott-Aldrich Syndrome protein (WASP) GTPase binding domain (GBD) construct, residues 154-322 (domain or fragment, human, UniProt P42768 154-322, looked up)
chain: GDRRQLPPPPTPANEERRGGLPPLPLHPGGDQGGPPVGPLSLGLATVDIQNPDITSSRYRGLPAPGPSPADKKRSGKKKISKADIGAPSGFKHVSHVGWDPQNGFDVNNLDPDLRSLFSRAGISEAQLTDAETSKLIYDFIEDQGGLEAVRQEMRRQEPLPPPPPPSRG
Turning to B1, in assay [1], the “fold decrease of ka at 2 M urea against no urea” value came to 3.4 fold. The molecule further came in with a koff in assay [2] of 4.1 ± 1.7 s⁻¹. Besides, the on-rate constant (kon) in assay [2] was 1.2e+07 M⁻¹ s⁻¹; in assay [3], 1.75e+07 M⁻¹ s⁻¹; in assay [4], 1.63e+07 M⁻¹ s⁻¹; in assay [5], 2.07e+07 M⁻¹ s⁻¹.

Values taken from PMC5643242 (The FEBS journal, 2017).
